Reference: PMC10912509

Molecular target: ITPKB (UniProt P27987)
Assay: co-immunoprecipitation, immunoblot
Details: reference: wild-type Trim25; sites S100

binding against the reference: weaker
Substance: Trim25 (from UniProt Q14258) Trim25 S100A
